In PMC5865128 (Nature Communications, 2018):

T1: FLAG-tagged mouse BAFF 3-mer, H242A (mouse, UniProt Q9WU72 127-309, H242A)
T1 construct: mouse BAFF (Tnfsf13b), soluble form; also called FLAG-mBAFF H242A; source: 293 T cells, transient transfection, supernatant, size fractionated by gel filtration (3-mer fractions 13 + 14)
T1 sequence (looked up): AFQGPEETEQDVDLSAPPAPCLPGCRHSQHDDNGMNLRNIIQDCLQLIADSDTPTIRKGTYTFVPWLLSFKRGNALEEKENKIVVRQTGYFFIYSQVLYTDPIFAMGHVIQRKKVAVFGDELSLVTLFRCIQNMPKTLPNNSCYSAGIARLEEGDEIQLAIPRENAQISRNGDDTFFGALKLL

T2: FLAG-tagged mouse BAFF 3-mer, E247K (mouse, UniProt Q9WU72 127-309, E247K)
T2 construct: mouse BAFF (Tnfsf13b), soluble form; also called FLAG-mBAFF E247K; source: 293 T cells, transient transfection, supernatant, size fractionated by gel filtration (3-mer fractions 13 + 14)
T2 sequence (looked up): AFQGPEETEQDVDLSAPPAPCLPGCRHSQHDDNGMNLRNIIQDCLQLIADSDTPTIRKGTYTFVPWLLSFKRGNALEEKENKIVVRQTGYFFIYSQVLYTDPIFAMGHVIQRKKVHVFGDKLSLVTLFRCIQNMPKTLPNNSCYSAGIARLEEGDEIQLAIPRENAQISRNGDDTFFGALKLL


What was measured:
[1] = target: His-tagged human BAFF (60-mer) (human) (UniProt Q9Y275); experiment: SEC; purified His-tagged BAFF alone on Superdex 200 Increase, against molecular weight standards
[2] = target: naturally cleaved, untagged human BAFF H218A (human); experiment: SEC; concentrated 293 T supernatants of naturally cleaved BAFF fractionated on Superdex 200 Increase; fractions blotted with anti-BAFF antibodies; oligomer seen in the fractions
[3] = target: naturally cleaved, untagged human BAFF E223K (human); experiment: as above
[4] = target: T3, FLAG-tagged mouse BAFF 3-mer, wild type (mouse, UniProt Q9WU72 127-309); experiment: ELISA; direct binding: BAFFR-Fc, BCMA-Fc or TACI-Fc (human or mouse) adsorbed at 1 µg/ml; FLAG-tagged BAFF 3-mers of the corresponding species 1 h at 37 °C in PBS, 0.4% milk, 0.05% Tween-20; biotinylated anti-FLAG detection; settings: both partners purified
T3 construct: mouse BAFF (Tnfsf13b), soluble form; also called FLAG-mBAFF WT; mBAFF; source: 293 T cells, transient transfection, supernatant, size fractionated by gel filtration (3-mer fractions 13 + 14)

[5] = target: T1, FLAG-tagged mouse BAFF 3-mer, H242A; experiment: as above; settings: both partners purified
[6] = target: T2, FLAG-tagged mouse BAFF 3-mer, E247K; experiment: as above; settings: both partners purified
[7] = target: T4, FLAG-tagged human BAFF 3-mer, H218A (human, UniProt Q9Y275 134-285, H218A); experiment: as above; settings: both partners purified
T4 construct: human BAFF (TNFSF13B), soluble form; also called FLAG-hBAFF H218A; source: 293 T cells, transient transfection, supernatant, size fractionated by gel filtration (3-mer fractions 15 + 16)

[8] = target: T5, FLAG-tagged human BAFF 3-mer, E223K (human, UniProt Q9Y275 134-285, E223K); experiment: as above; settings: both partners purified
T5 construct: human BAFF (TNFSF13B), soluble form; also called FLAG-hBAFF E223K; source: 293 T cells, transient transfection, supernatant, size fractionated by gel filtration (3-mer fractions 15 + 16)

Fc-human BAFF, wild type = target: T6, Fc-human BAFF, wild type (human, UniProt Q9Y275); experiment: ELISA; Fc-hBAFF (WT or H218A) coated at 1 µg/ml; soluble Fc-BAFF (WT or H218A) titrated, then biotinylated Fab of belimumab (50 µl of 100 ng/ml); streptavidin-peroxidase detection; relative affinity; settings: both partners purified
T6 construct: human BAFF (TNFSF13B); called an intrinsically cross-linked BAFF; also called Fc-hBAFF WT; Fc-BAFF

Row | binding result [4] | binding result [5] | binding result [6] | Molecule | other results
1 |  |  |  | His-tagged human BAFF (60-mer) (from UniProt Q9Y275 134-285) (ligand) | stoichiometry N [1]: 60
2 |  |  |  | naturally cleaved, untagged human BAFF H218A (ligand) | stoichiometry N [2]: 3
3 |  |  |  | naturally cleaved, untagged human BAFF E223K (ligand) | stoichiometry N [3]: 3
4 | binds | binds | binds | mouse BAFFR-Fc (Fc fusion, UniProt Q9D8D0 1-71, looked up, mouse BAFF receptor (BAFFR); also called mBAFFR-Fc) MGARRLRVRSQRSRDSSVPTQCNQTECFDPLVRNCVSCELFHTPDTGHTSSLEPGTALQPQEGSALRPDVA | 
5 | binds | binds | binds | MAQQCFHSEYFDSLLHACKPCHLRCSNPPATCQPYCDPSVTSSVKGTYT (Fc fusion, UniProt O88472 1-49, looked up, mouse BCMA) [mouse BCMA-Fc] | 
6 | binds | binds | binds | mouse TACI-Fc (Fc fusion, UniProt Q9ET35 1-128, looked up, mouse TACI) MAMAFCPKDQYWDSSRKSCVSCALTCSQRSQRTCTDFCKFINCRKEQGRYYDHLLGACVSCDSTCTQHPQQCAHFCEKRPRSQANLQPELGRPQAGEVEVRSDNSGRHQGSEHGPGLRLSSDQLTLYC | 
7 |  |  |  | human BCMA-Fc (Fc fusion, UniProt Q02223 1-54, looked up, human BCMA (TNFRSF17); also called TNFRSF17) MLQMAGQCSQNEYFDSLLHACIPCQLRCSSNTPPLTCQRYCNASVTNSVKGTNA | binding result [7]: binds; binding result [8]: binds
8 |  |  |  | Fab fragment of belimumab (Fab, V domains shown, heavy-chain part of the Fab; as the light chain of m24; also called belimumab Fab; source: papain digestion of belimumab, flowthrough of Protein A, size-fractionated (Superdex 200 Increase)) VH: QVQLQQSGAEVKKPGSSVRVSCKASGGTFNNNAINWVRQAPGQGLEWMGGIIPMFGTAKYSQNFQGRVAITADESTGTASMELSSLRSEDTAVYYCARSRDLLLFPHHALSPWGRGTMVTVSS VL: SSELTQDPAVSVALGQTVRVTCQGDSLRSYYASWYQQKPGQAPVLVIYGKNNRPSGIPDRFSGSSSGNTASLTITGAQAEDEADYYCSSRDSSGNHWVFGGGTELTVL | binding result (Fc-human BAFF, wild type): binds
